From patent EP1165781B1 (ELI LILLY AND COMPANY, dated 2007) come the findings set out here.

Assay [1] addresses FasLigand (monomer) (Homo sapiens (Human)) (UniProt P48023). The assay is described as follows: SPR (Biacore 2000), FasL amine-coupled to CM5 chip, Fas in solution. (In general: SPR reads the build-up and loss of mass on a sensor chip optically.)
Assay [2] has as its target T1, FLINT (FAS Ligand Inhibitory Protein), mature human FLINT (human, UniProt O95407 30-300).
T1 construct: also called mature FLINT; native FLINT
T1 sequence: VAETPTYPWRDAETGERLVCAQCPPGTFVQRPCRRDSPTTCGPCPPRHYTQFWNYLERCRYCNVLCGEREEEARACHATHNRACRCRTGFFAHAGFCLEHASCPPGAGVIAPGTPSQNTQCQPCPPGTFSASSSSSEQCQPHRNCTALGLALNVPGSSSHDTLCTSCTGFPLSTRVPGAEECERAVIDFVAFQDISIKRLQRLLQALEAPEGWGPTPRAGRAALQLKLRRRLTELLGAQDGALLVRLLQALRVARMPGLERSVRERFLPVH
The assay is described as follows: SPR (Biacore 2000), FasL amine-coupled to CM5 chip, FLINT in solution.

“Fas/Fc chimera (R&D Systems) (Fc fusion)”: the Kd (commonly the constant that tells how readily two partners part at equilibrium) in assay [1] came to 162 nM.

B1: FasLigand (monomer) (ligand)
chain: QLFHLQKELAELRESTSQMHTASSLEKQIGHPSPPPEKKELRKVAHLTGKSNSRSMPLEWEDTYGIVLLSGVKYKKGGLVINETGLYFVYSKVYFRGQSCNNLPLSHKVYMRNSKYPQDLVMMEGKMMSYCTTGQMWARSSYLGAVFNLTSADHLYVNVSELSLVNFEESQTFFGLYKL
modifications: Amine-coupled through lysines to a CM5 chip.
notes: Amine-coupled to a CM5 chip; also called Fas Ligand (Kamiya Biomedical Company)
In assay [2], B1 had a Kd of 113 nM.
